Results from US20260242419A1, “A CYCLIC PEPTIDE FOR TRAPPING INTERLEUKIN-1 BETA” (Merck Sharp & Dohme LLC, priority 2023, published 2026).
Non-standard residues stand in square brackets, D forms with d. Primed or numbered codes have the meaning given here. Trp(4-Cl)(βS-Me) = C[C@@H](c1c[nH]c2cccc(Cl)c12)[C@H](N)C(=O)O; Trp(βS-Me,4-F) = C[C@@H](c1c[nH]c2cccc(F)c12)[C@H](N)C(=O)O; Bip(4'-COOH) = N[C@@H](Cc1ccc(-c2ccc(C(=O)O)cc2)cc1)C(=O)O; dPro(4R-Bzl(4-F)) = O=C(O)[C@H]1C[C@@H](Cc2ccc(F)cc2)CN1; 1Nal(3S-Me) = C[C@@H](c1cccc2ccccc12)[C@H](N)C(=O)O; Ala(morpholin-4-yl) = N[C@@H](CN1CCOCC1)C(=O)O; Ala(piperazin-1-yl) = N[C@@H](CN1CCNCC1)C(=O)O; Ala(pyrimidin-5-yl) = N[C@@H](Cc1cncnc1)C(=O)O; Phe(4-COOH) = N[C@@H](Cc1ccc(C(=O)O)cc1)C(=O)O; Pro(cis-4-F) = O=C(O)[C@@H]1C[C@H](F)CN1; cisHyp = O=C(O)[C@@H]1C[C@H](O)CN1; d(αMeD) = C[C@@](N)(CC(=O)O)C(=O)O; aIle = CC[C@@H](C)[C@H](N)C(=O)O; 4Pal = N[C@@H](Cc1ccncc1)C(=O)O; aThr = C[C@H](O)[C@H](N)C(=O)O; αMeD = C[C@](N)(CC(=O)O)C(=O)O; αMeK = C[C@](N)(CCCCN)C(=O)O; dαMeDab′ = not defined here; hSer = N[C@@H](CCO)C(=O)O; Dab = NCC[C@H](N)C(=O)O; Aib = CC(C)(N)C(=O)O; Sar = CNCC(=O)O

B1: SEQ ID NO: 129 (peptide)
peptide: cyclo([Bip(4'-COOH)][4Pal][Phe(4-COOH)]G[Pro(cis-4-F)][Trp(βS-Me,4-F)][αMeDab]SW[Aib][Ala(pyrimidin-5-yl)]Q[Dab]G[dPro(4R-Bzl(4-F))])
modifications: ring closure inferred; not fully specified (bridges); printed as Bip4CO2H-4Pal-Phe4COOH-G-Proc4F-SbMeW4F-aMeDab-S-W-Aib-PyrimAla-Q-Dab-G-dProc4Bn4F
B2: SEQ ID NO: 138 (peptide)
peptide: cyclo([Bip(4'-COOH)][4Pal][Phe(4-COOH)]G[Pro(cis-4-F)][Trp(βS-Me,4-F)][Aib][aThr]W[αMeK][Ala(pyrimidin-5-yl)]Q[Dab]G[dPro(4R-Bzl(4-F))])
modifications: ring closure inferred; not fully specified (bridges); printed as Bip4CO2H-4Pal-Phe4COOH-G-Proc4F-SbMeW4F-Aib-alT-W-aMeK-PyrimAla-Q-Dab-G-dProc4Bn4F
B3: SEQ ID NO: 137 (peptide)
peptide: cyclo([Bip(4'-COOH)][4Pal][Phe(4-COOH)]G[Pro(cis-4-F)][Trp(βS-Me,4-F)][Aib]TW[αMeK][Ala(pyrimidin-5-yl)]Q[Dab]G[dPro(4R-Bzl(4-F))])
modifications: ring closure inferred; not fully specified (bridges); printed as Bip4CO2H-4Pal-Phe4COOH-G-Proc4F-SbMeW4F-Aib-T-W-aMeK-PyrimAla-Q-Dab-G-dProc4Bn4F
B4: SEQ ID NO: 136 (peptide)
peptide: cyclo([Bip(4'-COOH)][4Pal][Phe(4-COOH)]G[Pro(cis-4-F)][Trp(βS-Me,4-F)][Aib][aIle]W[αMeK][Ala(pyrimidin-5-yl)]Q[Dab]G[dPro(4R-Bzl(4-F))])
modifications: ring closure inferred; not fully specified (bridges); printed as Bip4CO2H-4Pal-Phe4COOH-G-Proc4F-SbMeW4F-Aib-alI-W-aMeK-PyrimAla-Q-Dab-G-dProc4Bn4F
B5: SEQ ID NO: 128 (peptide)
peptide: cyclo([Bip(4'-COOH)][4Pal][Phe(4-COOH)]G[Pro(cis-4-F)][Trp(βS-Me,4-F)][Aib]SW[d(αMeD)][Ala(pyrimidin-5-yl)]Q[Dab]G[dPro(4R-Bzl(4-F))])
modifications: ring closure inferred; not fully specified (bridges); printed as Bip4CO2H-4Pal-Phe4COOH-G-Proc4F-SbMeW4F-Aib-S-W-daMeD-PyrimAla-Q-Dab-G-dProc4Bn4F
B6: SEQ ID NO: 127 (peptide)
peptide: cyclo([Bip(4'-COOH)][4Pal][Phe(4-COOH)]G[cisHyp][Trp(βS-Me,4-F)][Aib]SW[Aib][Ala(pyrimidin-5-yl)]Q[Dab]G[dPro(4R-Bzl(4-F))])
modifications: ring closure inferred; not fully specified (bridges); printed as Bip4CO2H-4Pal-Phe4COOH-G-Proc4OH-SbMeW4F-Aib-S-W-Aib-PyrimAla-Q-Dab-G-dProc4Bn4F
B7: SEQ ID NO: 141 (peptide)
peptide: cyclo([Bip(4'-COOH)][4Pal][Phe(4-COOH)]G[Pro(cis-4-F)][Trp(βS-Me,4-F)][Aib]SW[αMeD][Ala(pyrimidin-5-yl)]Q[Dab]G[dPro(4R-Bzl(4-F))])
modifications: ring closure inferred; not fully specified (bridges); printed as Bip4CO2H-4Pal-Phe4COOH-G-Proc4F-SbMeW4F-Aib-S-W-aMeD-PyrimAla-Q-Dab-G-dProc4Bn4F
B8: SEQ ID NO: 130 (peptide)
peptide: cyclo([Bip(4'-COOH)][4Pal][Phe(4-COOH)]G[Pro(cis-4-F)][Trp(βS-Me,4-F)][Aib]SW[αMeDab][Ala(pyrimidin-5-yl)]Q[Dab]G[dPro(4R-Bzl(4-F))])
modifications: ring closure inferred; not fully specified (bridges); printed as Bip4CO2H-4Pal-Phe4COOH-G-Proc4F-SbMeW4F-Aib-S-W-aMeDab-PyrimAla-Q-Dab-G-dProc4Bn4F
B9: SEQ ID NO: 140 (peptide)
peptide: cyclo([Bip(4'-COOH)][4Pal][Phe(4-COOH)]G[Pro(cis-4-F)][1Nal(3S-Me)][Aib]SW[Aib][Ala(pyrimidin-5-yl)]Q[Dab]G[dPro(4R-Bzl(4-F))])
modifications: ring closure inferred; not fully specified (bridges); printed as Bip4CO2H-4Pal-Phe4COOH-G-Proc4F-SbMe1Nal-Aib-S-W-Aib-PyrimAla-Q-Dab-G-dProc4Bn4F
B10: SEQ ID NO: 131 (peptide)
peptide: cyclo([Bip(4'-COOH)][4Pal][Phe(4-COOH)]G[Pro(cis-4-F)][Trp(βS-Me,4-F)][dαMeDab′]SW[Aib][Ala(pyrimidin-5-yl)]Q[Dab]G[dPro(4R-Bzl(4-F))])
modifications: ring closure inferred; not fully specified (bridges); printed as Bip4CO2H-4Pal-Phe4COOH-G-Proc4F-SbMeW4F-daMeDab-S-W-Aib-PyrimAla-Q-Dab-G-dProc4Bn4F
B11: SEQ ID NO: 133 (peptide)
peptide: cyclo([Bip(4'-COOH)][4Pal][Phe(4-COOH)]G[Pro(cis-4-F)][Trp(βS-Me,4-F)][Aib][hSer]W[αMeK][Ala(pyrimidin-5-yl)]Q[Dab]G[dPro(4R-Bzl(4-F))])
modifications: ring closure inferred; not fully specified (bridges); printed as Bip4CO2H-4Pal-Phe4COOH-G-Proc4F-SbMeW4F-Aib-hS-W-aMeK-PyrimAla-Q-Dab-G-dProc4Bn4F
B12: SEQ ID NO: 134 (peptide)
peptide: cyclo([Bip(4'-COOH)][4Pal][Phe(4-COOH)]G[Pro(cis-4-F)][Trp(βS-Me,4-F)][Aib]AW[αMeK][Ala(pyrimidin-5-yl)]Q[Dab]G[dPro(4R-Bzl(4-F))])
modifications: ring closure inferred; not fully specified (bridges); printed as Bip4CO2H-4Pal-Phe4COOH-G-Proc4F-SbMeW4F-Aib-A-W-aMeK-PyrimAla-Q-Dab-G-dProc4Bn4F
B13: SEQ ID NO: 139 (peptide)
peptide: cyclo([Bip(4'-COOH)][4Pal][Phe(4-COOH)]G[Pro(cis-4-F)][Trp(4-Cl)(βS-Me)][Aib]SW[Aib][Ala(pyrimidin-5-yl)]Q[Dab]G[dPro(4R-Bzl(4-F))])
modifications: ring closure inferred; not fully specified (bridges); printed as Bip4CO2H-4Pal-Phe4COOH-G-Proc4F-SbMeW4Cl-Aib-S-W-Aib-PyrimAla-Q-Dab-G-dProc4Bn4F
B14: SEQ ID NO: 132 (peptide)
peptide: cyclo([Bip(4'-COOH)][4Pal][Phe(4-COOH)]G[Pro(cis-4-F)][Trp(βS-Me,4-F)][Aib]EW[αMeK][Ala(pyrimidin-5-yl)]Q[Dab][Sar][dPro(4R-Bzl(4-F))])
modifications: ring closure inferred; not fully specified (bridges); printed as Bip4CO2H-4Pal-Phe4COOH-G-Proc4F-SbMeW4F-Aib-E-W-aMeK-PyrimAla-Q-Dab-Sar-dProc4Bn4F
B15: SEQ ID NO: 135 (peptide)
peptide: cyclo([Bip(4'-COOH)][4Pal][Phe(4-COOH)]G[Pro(cis-4-F)][Trp(βS-Me,4-F)][Aib]VW[αMeK][Ala(pyrimidin-5-yl)]Q[Dab]G[dPro(4R-Bzl(4-F))])
modifications: ring closure inferred; not fully specified (bridges); printed as Bip4CO2H-4Pal-Phe4COOH-G-Proc4F-SbMeW4F-Aib-V-W-aMeK-PyrimAla-Q-Dab-G-dProc4Bn4F

These binders were tested against Recombinant human IL-1β (BioLegend 579404) (human, UniProt P01584 117-269) (assay: cell-based or functional assay).
With B1 the “MRC5 IC50” value was 0.019 nM.
With B2 the “MRC5 IC50” value was 0.021 nM.
B3 was tested, and the “MRC5 IC50” value was 0.022 nM.
B4 was tested, and the “MRC5 IC50” value was 0.027 nM.
With B5 the “MRC5 IC50” value was 0.009 nM.
With B6 the “MRC5 IC50” value was 0.013 nM.
For B7, the “MRC5 IC50” value was 0.011 nM.
For B8, the “MRC5 IC50” value was 0.039 nM.
In the case of cyclo([Bip(4'-COOH)][4Pal][Phe(4-COOH)]G[Pro(cis-4-F)][Trp(βS-Me,4-F)][Aib]EW[Aib][Ala(morpholin-4-yl)]QSG[dPro(4R-Bzl(4-F))]) (ring closure inferred) [SEQ ID NO: 125], the “MRC5 IC50” value is reported as 0.041 nM.
In the case of cyclo([Bip(4'-COOH)][4Pal][Phe(4-COOH)]G[Pro(cis-4-F)][Trp(βS-Me,4-F)][Aib]EW[Aib][Ala(morpholin-4-yl)]QSG[dPro(4R-Bzl(4-F))]) (ring closure inferred) [SEQ ID NO: 124], the “MRC5 IC50” value is reported as 0.018 nM.
With B9 the “MRC5 IC50” value was 0.033 nM.
cyclo([Bip(4'-COOH)][4Pal][Phe(4-COOH)]G[Pro(cis-4-F)][Trp(βS-Me,4-F)][Aib]EW[Aib][Ala(morpholin-4-yl)]Q[Dab]G[dPro(4R-Bzl(4-F))]) (ring closure inferred) [SEQ ID NO: 123] was tested, and the “MRC5 IC50” value was 0.017 nM.
With B10 the “MRC5 IC50” value was 0.019 nM.
For cyclo([Bip(4'-COOH)][4Pal][Phe(4-COOH)]G[Pro(cis-4-F)][Trp(βS-Me,4-F)][Aib]EW[Aib][Ala(morpholin-4-yl)]Q[Dab]G[dPro(4R-Bzl(4-F))]) (ring closure inferred) [SEQ ID NO: 126], the “MRC5 IC50” value was 0.022 nM.
In the case of B11, the “MRC5 IC50” value is reported as 0.021 nM.
B12 was tested, and the “MRC5 IC50” value was 0.021 nM.
B13 was tested, and the “MRC5 IC50” value was 0.034 nM.
B14 was tested, and the “MRC5 IC50” value was 0.015 nM.
B15 was tested, and the “MRC5 IC50” value was 0.035 nM.
For cyclo([Bip(4'-COOH)][4Pal][Phe(4-COOH)]G[Pro(cis-4-F)][Trp(βS-Me,4-F)][Aib]EW[Aib][Ala(piperazin-1-yl)]QSG[dPro(4R-Bzl(4-F))]) (ring closure inferred) [SEQ ID NO: 122], the “MRC5 IC50” value was 0.019 nM.
